Target: HDAC1 (full-length) (UniProt Q13547 1-482)
Assay: cell-based or functional assay

HDAC1 (full-length), sequence (Q13547 whole entry): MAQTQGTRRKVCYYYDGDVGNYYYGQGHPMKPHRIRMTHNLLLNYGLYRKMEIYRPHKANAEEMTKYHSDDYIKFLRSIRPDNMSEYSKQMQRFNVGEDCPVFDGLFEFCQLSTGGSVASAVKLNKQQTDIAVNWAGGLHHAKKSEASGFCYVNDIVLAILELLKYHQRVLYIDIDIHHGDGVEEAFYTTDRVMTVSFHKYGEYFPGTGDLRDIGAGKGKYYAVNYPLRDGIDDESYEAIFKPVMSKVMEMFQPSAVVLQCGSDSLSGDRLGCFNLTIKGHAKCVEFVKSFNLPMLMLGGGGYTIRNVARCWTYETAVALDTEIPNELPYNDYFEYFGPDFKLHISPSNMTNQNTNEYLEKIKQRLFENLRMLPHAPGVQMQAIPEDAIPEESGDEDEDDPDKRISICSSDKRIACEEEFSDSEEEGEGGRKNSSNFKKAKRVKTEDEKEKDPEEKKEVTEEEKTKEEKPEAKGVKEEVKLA

Row | Binder | initial rate of deacetylation of H3K9ac peptide (100 µM) by the MiDAC complex (50 nM HDAC1), NMR assay [nM/s]
1 | MIDEAS 628-887 Y654S (STP) (domain or fragment, human, UniProt Q6PJG2 628-887, looked up, phosphorylation either on S654 or T655 detected on more than 41% of the peptides containing STP) TPYQSHLRSPVRLADHPSERSFELPPSTPPPILSPVREGSGLYFNAIISTSTIPAPPPITPKSAHRTLLRTNSAEVTPPVLSVMGEATPVSIEPRINVGSRFQAEIPLMRDRALAAADPHKADLVWQPWEDLESSREKQRQVEDLLTAACSSIFPGAGTNQELALHCLHESRGDILETLNKLLLKKPLRPHNHPLATYHYTGSDQWKMAERKLFNKGIAIYKKDFFLVQKLIQTKTVAQCVEFYYTYKKQVKIGRNGTLT | 20.4
2 | MIDEAS 628-887 Y654S T655A (SAP) (domain or fragment, human, UniProt Q6PJG2 628-887, looked up) TPYQSHLRSPVRLADHPSERSFELPPSAPPPILSPVREGSGLYFNAIISTSTIPAPPPITPKSAHRTLLRTNSAEVTPPVLSVMGEATPVSIEPRINVGSRFQAEIPLMRDRALAAADPHKADLVWQPWEDLESSREKQRQVEDLLTAACSSIFPGAGTNQELALHCLHESRGDILETLNKLLLKKPLRPHNHPLATYHYTGSDQWKMAERKLFNKGIAIYKKDFFLVQKLIQTKTVAQCVEFYYTYKKQVKIGRNGTLT | 16.6

Results, then the binder that gave them:

Row | initial rate of deacetylation of H3K9ac peptide (100 µM) by the MiDAC complex (50 nM HDAC1), NMR assay [nM/s] | Binder
3 | 29.7 | MIDEAS 717-887 (WT) (domain or fragment, human, UniProt Q6PJG2 717-887, looked up) VSIEPRINVGSRFQAEIPLMRDRALAAADPHKADLVWQPWEDLESSREKQRQVEDLLTAACSSIFPGAGTNQELALHCLHESRGDILETLNKLLLKKPLRPHNHPLATYHYTGSDQWKMAERKLFNKGIAIYKKDFFLVQKLIQTKTVAQCVEFYYTYKKQVKIGRNGTLT
4 | 6.3 | MIDEAS (628-887) (domain or fragment, human, UniProt Q6PJG2 628-887, looked up) TPYQSHLRSPVRLADHPSERSFELPPYTPPPILSPVREGSGLYFNAIISTSTIPAPPPITPKSAHRTLLRTNSAEVTPPVLSVMGEATPVSIEPRINVGSRFQAEIPLMRDRALAAADPHKADLVWQPWEDLESSREKQRQVEDLLTAACSSIFPGAGTNQELALHCLHESRGDILETLNKLLLKKPLRPHNHPLATYHYTGSDQWKMAERKLFNKGIAIYKKDFFLVQKLIQTKTVAQCVEFYYTYKKQVKIGRNGTLT
5 | 27.3 | MIDEAS 628-887 Y654S T655D (SDP) (domain or fragment, human, UniProt Q6PJG2 628-887, looked up) TPYQSHLRSPVRLADHPSERSFELPPSDPPPILSPVREGSGLYFNAIISTSTIPAPPPITPKSAHRTLLRTNSAEVTPPVLSVMGEATPVSIEPRINVGSRFQAEIPLMRDRALAAADPHKADLVWQPWEDLESSREKQRQVEDLLTAACSSIFPGAGTNQELALHCLHESRGDILETLNKLLLKKPLRPHNHPLATYHYTGSDQWKMAERKLFNKGIAIYKKDFFLVQKLIQTKTVAQCVEFYYTYKKQVKIGRNGTLT

Reference: publication PMC12647621, “A de novo missense variant in MIDEAS results in increased deacetylase activity of the MiDAC HDAC complex causing a neurodevelopmental syndrome” (Nature Communications, 2025)
